Source: the DeepSol protein solubility set

assay: soluble on expression in E. coli; label from the status in PepcDB or PDB records

Sequence | soluble on expression in E. coli
MGSDKIHHHHHHMTIFERSKKGRKAFRLPESDIPEYSLPDRFLRRTPPELPEVSEPDLVRHYTNLARKNYSVDLGIYPLGSCTMKYNPKLNEKAANLEGFREIHPYQPVETVQGSLRLMYELKKMLCEITGMDDMTLQPAAGAHGELTGMLIVREYFKNRGDTGRKKVLVPDSAHGTNPASASMVGFEVVEIKSKNGMVDVEDLKKLLDEEVAAVMLTNPNTLGLFEKDILKIAEMTHECGALLYYDGANLNAIMGKVRPGDMGFDIVHLNLHKTFSTPHGMGGPGSGPVGVKKHLVDFLPFPQVKKNGELYELFVPEKTIGRVRSFFGNFPVLVKAYTYILTMGRDGLERVSEMAVLNANYLKKKIEKFLEIPYNGFCMHEFVASAEKVFRETGVRTLDIAKRILDFGVHPPTVYFPLIVPEALMIEPTETENKETLDKYAEILERVVKEAYENPDALKNAPHNTPVRRVNEVLASKKPVFRWRG | not soluble
MSLTVHATPEPAAHQGVALGSSFYAAMRILPRPQREAMFQVYSFCRFVDDIADSDRPREQRVAELQQWRDDIAALYRGAPPPRLADYQESLRTFGLKREDFEAIIDGMEMDVDADIRAPDEATLDLYCDRVASAVGRLSVRIFGLPEADGIELSHHLGRALQLTNILRDIDEDAGIGRLYLPSELLHKVGITATDPRVVAADSALPSVCAPLVERALAHFAAADKVMNRNPRRVVKAPRIMGKYYYSILQLLIARGFAAPRAPVKLGKASKIAILLQYAIVEGHHHHHH | soluble
MGSDKIHHHHHHMAISRLLVEKFRNLTAVDLDFDPCFNFLIGNNGSGKTSLLEAIFYLGHGRSFKSAVTNRIISYDEPHFTLFGQIQESQHQWSIGLQKLRQGNTLVKINGEDGNKISDLAHLLPMQLITPEGLTLLNGGPSYRRAFLDWGLFHHQTSFYSAWSNLNRLLKQRNAALAQNQPYSAIKIWDVELAKLAHQVSEWRAEYAEALSPEIEQTCQLFLPELEINVSFHQGWEKNADYYEILQQNFERDRALNYTFSGPQKADFRFKAQGLPVEDVLSRGQLKLLMCALRLAQGEHLMKEKQRHCIFLIDDFASELDQYKRALLAERLQQSGSQVFVTAITQRQLKEMQVENKKMFSVHNGIINALN | not soluble
MGHHHHHHGGHMSLNSTSSPTIAVTAATGKLGQLVVSSLLERGVPADHIVAIVRNPAKAQGLFAPGVQIRQADYNSPEGWDRALAGVQRLLLISSSDLNDRADQHRTVIEAASAAGVELLAYTSLLKADTARMSLAADHQATEKLLTESGVPFVLLRNGWYLENYDLAQALQTGSVLGAAGTGRISAASRKDLAEAAAAALTRDGQAGKVYELAGDEAFSLSELAAELSKQSGKDVQYRNFAPEDYQRTLEGFGLPAPVAQMLVSSDEGVARGELELPNSDLRELIGRPSTSLKEAVASQLAEGGS | soluble
MDSQKFIDLCKKHVVDFANSQLDYTDQKKISESDIYVVWLAKTLQNNKALLSTNLFDGMYYEVTFNGDKNELYFDAYKKWRNIRFDVTEGGDQNG | not soluble
MGSDKIHHHHHHMKVHVLASGSTGNAVLFQFGESKILVDAGISCRRIENGLQAIGTRAGELDAVLLTHEHTDHIKGLDVFIRKYQLPVFARPATWSKIDCRKKFPGECIKELEGTFSLGKVLIEPFAISHDAIDPVGFCFYYGKRKAVIATDLGMVSREVEKALSFSDIAVLESNHDPQMLKNGPYPPYLKKRIEGREGHLSNFDTARLLSTVPRHNPMQVLLAHISQQNNHPMLAQQTVSKIMQDSGCEVGREIGIYPTFPHHGITCTMTRVFAVNAPLFQWADLLAKQDGRGKAN | not soluble
MSLGQEEAGKLLDSLAEPSKKAYRINSLKEGAVVYPQEEAVPGIPNAYYGEVSGKDPEWTAGLVYSQDPAAMFPAQAIPVKPGDKVLDLCAAPGGKSTALAQKLQGEGLLVANEISPSRAKILRENLERWGVSNAVVTNCDSFALSARFPGFFDAILVDAPCSGEGMFRKSEDAIKYWSQENVDLCADRQREILTEAVKMLKPGGYLLYSTCTFSPEEDEEIVSWLLDEYGFKLLPIAAEKAAPGRPEWGNGDASLANCARFWPQDGVGEGQFVASLQKAAGEESFAAEAGEVFSPVRKNKDKKKKGKGKNKGNRSSLERPSKEESCYISEAIAGFNWPESLASWPSQMLKSQDHVFVPALEPEQLKGIKVLSNGLELGILKKKRFEPSHQLAEVLGQVDQERVVDLTEEEYDHYLHGESLQVNSSLKGFVLVSCRGMIFSFGKLSGKGQLKNYYPKGLRQKGIITITTDPNSSSVDKLAAALEHHHHHH | soluble
MAHHHHHHMSSTVTGQAIPKLFPKAFHSWVGTGRIFNFLAPYEQNRVIAYLNSIYNTAPLFKWSLSIVPLYGIVSGYPPVEKIDFNSSAALCATGMVWFVYALLIQPQNSGSRSLALVNICLATVNGYNCYRSAQHKRRQAVNANRIE | not soluble
MAHHHHHHMEIKTASKIVRRVSNVEAFDKSGSVFKGYQIWTDISPTIENDPNIMFVKCVVQQGSKKEKLTVVQIDPPGTGTPYDIDPTHAWNCNSQVDPMSFGDIGLLNHTNIPCVLDFLKHRYLKNQIYTTAVPLIVAINPYKDLGNTTNEWIRRYRDTADHTKLPPHVFTCAREALSNLHGVNKSQTIIVSGESGAGKTEATKQIMRYFASSKSGNMDLRIQTAIMAANPVLEAFGNAKTIRNNNSSRFGRFMQLVISHEGGIRYGSVVAFLLEKSRIITQDDNERSYHIFYQFLKGANSTMKSKFGLKGVTEYKLLNPNSTEVSGVDDVKDFEEVIESLKNMELSESDIEVIFSIVAGILTLGNVRLIEKQEAGLSDAAAIMDEDMGVFNKACELMYLDPELIKREILIKVTVAGGTKIEGRWNKNDAEVLKSSLCKAMYEKLFLWIIRHLNSRIEPEGGFKTFMGMLDIFGFEVFKNNSLEQLFINITNEMLQKNFVDIVFERESKLYKDEGISTAELKYTSNKEVINVLCEKGKSVLSYLEDQCLAPGGTDEKFVSSCATNLKENNKFTPAKVASNKNFIIQHTIGPIQYCAESFLLKNKDVLRGDLVEVIKDSPNPIVQQLFEGQVIEKGKIAKGSLIGSQFLNQLTSLMNLINSTEPHFIRCIKPNENKKPLEWCEPKILIQLHALSILEALVLRQLGYSYRRTFEEFLYQYKFVDIAAAEDSSVENQNKCVNILKLSGLSESMYKIGKSMVFLKQEGAKILTKIQREKLVEWENCVSVIEAAILKHKYKQKVNKNIPSLLRVQAHIRKKMVA | not soluble
MSIFNGIKEEQMDILREVGNIGAGHSASAMAQLLNRKIDMEVPFAKLLSFDELVDFFGGADVPVASIFLRMEGDLTGSMFFIMPFFQAEQFIRELIGNPDFDIEDLGEDHMSSSALHELGNILAGSYLTALADLTKLQLYPSVPEVSLDMFGAVISEGLMELSQVGEHAIVVDTSIFDQSHQQELKAHMFMLPDYDSFEKLFVALGASL | soluble
MNMIDQLNITDFQVFTDENSDKFVSKIYKFSSKMILSDFHAQPQGFLNGGASLALAEITAGMASNAIGSGQYFAFGQSINANHLNPKKCEGFVNARGLLLKNGKRNHVWEIKITDENETLISQITVVNALVPQKNSDKLEHHHHHH | soluble
MRQSISNDVATISRISAVPAILQVITESTGLGFAAVARVTEDSWTACAVLDNLGFGLKPGGELELISTICHEIRASHKPVVIDHVAEDELFCAHHTPRRYNFQSYISIPIFLTDGSFFGTICALDPKPAKLTGTPIEAMMVSFARLLALQIEAEENMQRVQ | not soluble
SESVHPGNHNLDTLSHSQISKEEETFPSHQLYTFQAPWLVYGLAWCNRVNSPYSLALSSFIESCNNKIILVELNDKTEDFQQVVQVDHPYPASKVAFIPDYSGTRPQLLATSGDALRIWEWSNDNLKSKALLSTNPESEYCAPLTSFDWCEVNPATLCTSSVDTTCTIWDVETQQAKTQLIAHDKEVYDVAFQTGTDKIFASAGADASVRCFDLRNLETSTILYEIPDDSTPILRIGWNKKEPNYMAALVMDSSKFLLLDIRVPSLPVAEMEHKLTNHKRHKSVNAIHWAPHSSSHICSAGDDCYTLIWDISAIPRPIEEPILSYQSDREVNNLQWSAADPDWIAIAAGNKMQILRV | soluble
MSLLVIVKVQQAKNPLERAFFYAVSPEDYYEQAERLLKEGVIDEEGLKKARIEEYVLGARFNANFHSYALKDVFGNFDFVGFSDRRQVNLQGFLNLPAKDQLKINVPVKNEEIGHFGVTMRESKQQEVYEAAEKFIEACKAEFPPGIIGMFGLQGAMAYSPEDETKLEFVIFDVSFRVPGDPAIGPTSPEMRNLTLKHGVKIEDPLDLTMMEIKKAMELKRMEEIVTEGHHHHHH | soluble
MGSDKIHHHHHHMRPIKNAKKIDYNLIKVFDTVITEGNATRAARKLDVTPAAISQALLRLQNLYGEELFIRTRKGLVPSSKGKSLHQVFRQAIESIESTLCDKTDAQESNELIVLGGDITENYYFPALLDTVLMNRYIIKHYAIKKTGEYSPASMLTHGYADVIMGILEIKNEMIESYLIDNLSDFVCVCGEKSPLVGLEKMSLYNFYAARHAVYHSDMFSSFTADSIDLFKSSTPYAGRREIGYYSDSLFGVIDIVEKSDMVAILPGKIATYFRDVRRYNIKILRMPDEMIFRTLPVYAYLATNSTHYKNVKKLISTFQSTFLFSQEKQPDALVEGSTSLCDLSV | not soluble
MGSDKIHHHHHHMNKKILIIDDNKMLGKLLAKKIQMTLDYEVDIAFGFAEAKELMNNDYFLAFVDLCLPDAPNGEVVDYVIEKKIPAIVLTASGDKATKEKFMDKDILDYIFKESETCIDEIISSIVKLNQYAKTKVIVAMSKLPERNEIKKILTQRQFNVLAAAHGEEAMSYLNDNNDVKLIIADVNMPVISGFELLTQVRERFSDDELGVILLGDHNDSFEANSFKNGVNEYLFKPLSKESFNCRLDRCLSYMDDKKFLSTYNVLDPVSGVKNYNALIDGIDDYFNEIATKDEEFAFAFLDIDNLQMINDEYGREVGDEVIKICANEIVNETKGRDLVGRYSAEKICILLKNISQERAIKIFSRIRVNIKKAGVLVNLDEVFFTASIGVVFGKSGDKIDSLADKASKILSQAKDNGKDRVEVCS | not soluble
MGSDKIHHHHHHMDMQQLKPSREHDAPLYLQLYRRYRDAIIARKLHPGDRVPSVRSLASELNLARGTVEMAYQMLASEGYFLTRGPAGTIVSPQLEKLTESGYSTTSLSQIPSRPQIETAQVQPFQLGLPALDAFPRKTWARLAGHNLRTLDTAAMISPDPAGYEPLRRAIATYLGISRGITCTHEQVFITAGYRGALELVCRTLLQPGDIGWFEDPGYIFARQFLARAGMHLEPVPVDEEGLNVDIGQQRAAEARFAVVTPTHQSPMGMALSLPRRLQLLEWASHHRSWIIEDDYDSEFRYHGRPLPALKSLDRDGRVLYTGTFSKVLFPGLRLAYLVVPEPQIERFRDTANHFCCAGSILPQATVANFMEQGHFARHLRRMRSLYAIRRGYLVDELLQALGSHLTVQPQAGGIHVLATLTARGNDQSLAAAAQSHGLAIQALNDWRTSKTSRGGLLMGFTNVTEPAMAKALVHRLAAAIGLS | not soluble
MSYEKEFLKDFEDWVKTQIQVNQLAMATSQEVAQEDGDERAKDAFIRYESKLDAYEFLLGKFDNYKNGKAFHDIPDELFGARHY | soluble
MAHHHHHHMSSCQNTHAARLHSATSAYAGEPESWMWTPARENGDGWRSPGTGTATSATAEAALHFVWGRVLSVYAVMPLNQTWNVQGVVDAVLPPLPANGGTTAAPSPPAAPAMAPGFQLLVMAAALLSPPATATTAVAAAPSMASLHKLSLMSPADAEPVDVGELSGAFWLAALRRAWPLFQACGVSHEPMTQGSNTNITEEAASSLGGVAVGMAGSGVNLEDLRTIVLSLFLRFADDSAVASAMAAADGDGAKLCGSAIRWAEAMCSDAPATYAQ | not soluble
MKAYQRYRFPSLRSVARDASARDSAALAAEAQCADIDARIEEGFRQGREDGYRDGFEHGEAEGMKQGREAGFAAGAQQARDALRSEYAGIAKTLDAMRDAFVRVQAEYLAARRTELVDVVAKVAKQVIRCELTLQPSQMAALIEETLGTMPASSDAPEVHLSPDDHERLAGLLPERARHWRLVPDARLEAGECRVLLGGNEADAGCQHRLDACVERIGEQLPGAPDVEAAAT | not soluble
